# Assay results published in publication doi:10.1101/2023.01.07.523072.
# Molecular target: RPN13 pru domain (Arabidopsis thaliana) (UniProt O48726)
# Assay: ITC
# Chain of UniProt O48726 (O48726 9-121): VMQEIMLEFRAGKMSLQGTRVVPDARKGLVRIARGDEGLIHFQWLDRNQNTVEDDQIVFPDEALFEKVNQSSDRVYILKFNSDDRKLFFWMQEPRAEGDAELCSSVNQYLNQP
substance,measurement,value
TTOP UBL domain (from UniProt F4K1H0 1-879) (domain or fragment),Kd,29 µM
same,stoichiometry N,1
